Values joined by “and” are separate entries in the source; they are usually repeats but may differ in a detail not shown here. Identical values can stand only once.
Experiments:
[1] = target: Concanavalin A (Con A) internal_change (UniProt P02866); assay: BLI; conditions: after the 20-nt 5' primer: every T = mannose-clicked C8-alkyne-dU (4), binding buffer, salt, pH and temperature not given in the material (hemagglutination: 30 min preincubation at RT)
[2] = target: Concanavalin A (Con A) internal_change (UniProt P02866); assay: particle flow cytometry; conditions: after the 20-nt 5' primer: every T = mannose-clicked C8-alkyne-dU (4), binding buffer, salt, pH and temperature not given in the material (hemagglutination: 30 min preincubation at RT)
[3] = every C = 5-formyl-dC (2), primer unmodified

With “GATCCCAGTCCGAAGTAATCGTTGCATCTGCACGACTGGTGAGCTTGAGTGGCAGAAGAACTTGTGCAAACGGCTATAGG [ConA-3-1]” the Kd [1, 3] was 5.8 nM and the Kd [2, 3] was 20 nM.

“GATCCCAGTCCGAAGTAATCGTTGCATCTGCACGACTGGTGAGCTTGAGTGGCAGAAGAACTTGTGCAAACGGCTATAGG [ConA-3-1m]” was tested, and the Kd ([1]; C natural) was 3.2 nM and 5.3 nM and the Kd ([2]; C natural) was 17 nM.
